Consider four substances from US20090035321A1, “Intercellular adhesion molecules and their binding ligands” (Boehringer Ingelheim Pharmaceuticals, Inc., published 2009).

Test [1] addresses ICAM-1 A115N/SV (printed A155N/SV at paragraph 410) (human) (UniProt P05362). The experiment in a line: 35S-HRV14 on COS cells.
For test [2], the target named is ICAM-1 S5/T (human) (UniProt P05362). The experiment in a line: 35S-HRV14 on COS cells.
The target in test [3] is ICAM-1 N269QSQI/IQAEQ (human) (UniProt P05362). The experiment in a line: 35S-HRV14 on COS cells.
In test [4] the target is Intercellular Adhesion Molecule-1 (ICAM-1), wild type, on the cell surface (human) (UniProt P05362).
Test [5] concerns the target purified ICAM-1 (human) (UniProt P05362).
The target of test [6] is ICAM-1 Y476/TAG (human) (UniProt P05362).
Test [7] addresses Intercellular Adhesion Molecule-1 (ICAM-1), wild type, on the cell surface (human) (UniProt P05362). This is another data set of the same source.
Test [8] has as its target Lymphocyte Function-associated Antigen-1 (LFA-1), on cells (human) (UniProt P20701).
For test [9] the target is unchanged. This is another data set of the same source.

On to “human rhinovirus 14 (HRV14) (from UniProt P03303)”, for which the HRV Binding % (% of wild type) is 12 in test [1], 125 in [2] and 108 in test [3].
As for monoclonal antibody RR1/1, the % inhibition of PMA-stimulated PHA-lymphoblast aggregation in test [4] came out at 51 % inhibition. The substance also yielded a binding of JY cells to ICAM-1 in plastic-bound vesicles in test [5] of 97 % inhibition. In addition, the % of cells expressing ICAM-1 that bind LFA-1 in the presence of RR1/1 in test [6] and in test [7] was 0% in each case.
For anti-LFA-1 monoclonal antibody TS1/18, in [8], the binding of JY cells to ICAM-1 in plastic-bound vesicles was determined as 96 % inhibition.
anti-LFA-1 antibody R3.1 registered a % inhibition of the mixed lymphocyte reaction in test [9] of 93 % inhibition.
